A short description of this series: Enzyme activity analysis: in vitro catalytic reaction of CocE enzymes to substrate BZE (HPLC, Michaelis-Menten). The format is biochemical. The following applies: for RCE, ratio of catalytic efficiency of the mutant enzyme to BZE and that of the wildtype enzyme / Km / kcat: substrate BZE; for Km / kcat: 25° C., 0.1 M phosphate buffer pH 7.4. The source says:
Firstly, an experimental method for detecting a substrate BZE and a product benzoic acid BA by HPLC was established. Both BZE and BA had strong ultraviolet absorption at 230 nm. In HPLC analysis, acetonitrile and 0.1% formic acid were used as mobile phases to separate BZE and BA by C18 liquid chromatography column. The absorption of BZE and BA at wavelength 230 nm was detected by an ultraviolet detector, and linear standard curves of BZE and BA were obtained. The activity of BZE reaction catalyzed by CocE was determined, and the reaction temperature was 25° C., with three repetitions in each group. An enzymatic reaction was started by 50 μL of substrate BZE solution with 50 μL of enzyme solution (diluted with 0.1 M phosphate buffer (pH 7.4)).
50 μL of 10% perchloric acid was added to stop the reaction, and then, 50 μL of acetonitrile was added, and the mixture was centrifuged at 12,000 rpm for 5 minutes. Then, the supernatant was diluted to an appropriate multiple and injected into […]. The peak time, peak areas and curves of BZE and BA were compared, and the residual BZE concentration and the BA concentration in the reaction sample were calculated. The kcat and KM of each mutant could be obtained by calculating the reaction rates of BA catalyzed by enzyme at different substrate concentrations, drawing a kinetic curve of the enzyme reaction with GraphPad Prism 8, and performing Michaelis-Menten kinetic analysis.

B1: Wildtype WT: wildtype bacterial cocaine esterase, amino acid sequence SEQ ID No. 1 (protein, listed as Rhodococcus sp.)
chain: MVDGNYSVASNVMVPMRDGVRLAVDLYRPDADGPVPVLLVRNPYDKFDVFAWSTQSTNWLEFVRDGYAVVIQDTRGLFASEGEFVPHVDDEADAEDTLSWILEQAWCDGNVGMFGVSYLGVTQWQAAVSGVGGLKAIAPSMASADLYRAPWYGPGGALSVEALLGWSALIGRQLITSRSDARPEDAADFVQLAAICNDVAGAASVTPLAEQPLLGRLIPWVIDQVVDHPDNDESWQSISLFERLGGLATPALITAGWYDGFVGESLRTFVAVKDNADARLVVGPWSHSNLTGRNADRKFGCAATYPIQEATTMHKAFFDRHLRGETDALAGVPKVRLFVMGIDEWRDETDWPLPDTAYTPFYLGGSGAANTSTGGGTLSTSISGTESADTYLYDPADPVPSLGGTLLFHNGDNGPADQRPIHDRDDVLCYSTEVLTDPVEVTGTVSARLFVSSSAVDTDFTAKLVDVFPDGRAIALCDGIVRMRYRETLVNPTLIEAGEIYEVAIDMLATSNVFLPGHRIMVQVSSSNFPKYDRNSNTGGVIAREQLEEMCTAVNRIHRGPEHPSHIVLPIIKR
The Km is the substrate concentration at which the rate is half of its maximum. One may read the kcat as the number of substrate molecules converted per active site and unit of time at saturation. Regarding B1, the “RCE, ratio of catalytic efficiency of the mutant enzyme to BZE and that of the wildtype enzyme” value (shortened to “RCE, ratio”) is recorded as 1.0; the Km was determined as 5150 µM; the kcat worked out at 5.02 s⁻¹.

B2: T172R/G173Q/L196C/I301C/V116K/A51Y: cocaine esterase mutant of SEQ ID No. 1 with the named mutations (protein, UniProt Q9L9D7 1-574, looked up, variant T172R G173Q L196C I301C V116K A51Y)
Cocaine esterase: MVDGNYSVASNVMVPMRDGVRLAVDLYRPDADGPVPVLLVRNPYDKFDVFYWSTQSTNWLEFVRDGYAVVIQDTRGLFASEGEFVPHVDDEADAEDTLSWILEQAWCDGNVGMFGKSYLGVTQWQAAVSGVGGLKAIAPSMASADLYRAPWYGPGGALSVEALLGWSALIGRQLITSRSDARPEDAADFVQLAAICNDVAGAASVTPLAEQPLLGRLIPWVIDQVVDHPDNDESWQSISLFERLGGLATPALITAGWYDGFVGESLRTFVAVKDNADARLVVGPWSHSNLTGRNADRKFGCAATYPIQEATTMHKAFFDRHLRGETDALAGVPKVRLFVMGIDEWRDETDWPLPDTAYTPFYLGGSGAANTSTGGGTLSTSISGTESADTYLYDPADPVPSLGGTLLFHNGDNGPADQRPIHDRDDVLCYSTEVLTDPVEVTGTVSARLFVSSSAVDTDFTAKLVDVFPDGRAIALCDGIVRMRYRETLVNPTLIEAGEIYEVAIDMLATSNVFLPGHRIMVQVSSSNFPKYDRNSNTGGVIAREQLEEMCTAVNRIHRGPEHPSHIVLPIIKR
As to B2, the “RCE, ratio” value was 357.4; the Km was 43.6 µM; the kcat was determined as 15.18 s⁻¹.

B3: T172R/G173Q/L196C/I301C: cocaine esterase mutant with the named mutations, comparator without V116K (protein, listed as Rhodococcus sp.)
chain: MVDGNYSVASNVMVPMRDGVRLAVDLYRPDADGPVPVLLVRNPYDKFDVFAWSTQSTNWLEFVRDGYAVVIQDTRGLFASEGEFVPHVDDEADAEDTLSWILEQAWCDGNVGMFGVSYLGVTQWQAAVSGVGGLKAIAPSMASADLYRAPWYGPGGALSVEALLGWSALIGRQLITSRSDARPEDAADFVQLAAICNDVAGAASVTPLAEQPLLGRLIPWVIDQVVDHPDNDESWQSISLFERLGGLATPALITAGWYDGFVGESLRTFVAVKDNADARLVVGPWSHSNLTGRNADRKFGCAATYPIQEATTMHKAFFDRHLRGETDALAGVPKVRLFVMGIDEWRDETDWPLPDTAYTPFYLGGSGAANTSTGGGTLSTSISGTESADTYLYDPADPVPSLGGTLLFHNGDNGPADQRPIHDRDDVLCYSTEVLTDPVEVTGTVSARLFVSSSAVDTDFTAKLVDVFPDGRAIALCDGIVRMRYRETLVNPTLIEAGEIYEVAIDMLATSNVFLPGHRIMVQVSSSNFPKYDRNSNTGGVIAREQLEEMCTAVNRIHRGPEHPSHIVLPIIKR
For the molecule B3, the “RCE, ratio” value worked out at 2.6; the Km was 3710 µM; the kcat is 9.278 s⁻¹.

B4: V116K: cocaine esterase mutant, 116th valine mutated into lysine (protein, listed as Rhodococcus sp.)
chain: MVDGNYSVASNVMVPMRDGVRLAVDLYRPDADGPVPVLLVRNPYDKFDVFAWSTQSTNWLEFVRDGYAVVIQDTRGLFASEGEFVPHVDDEADAEDTLSWILEQAWCDGNVGMFGKSYLGVTQWQAAVSGVGGLKAIAPSMASADLYRAPWYGPGGALSVEALLGWSALIGRQLITSRSDARPEDAADFVQLAAICNDVAGAASVTPLAEQPLLGRLIPWVIDQVVDHPDNDESWQSISLFERLGGLATPALITAGWYDGFVGESLRTFVAVKDNADARLVVGPWSHSNLTGRNADRKFGCAATYPIQEATTMHKAFFDRHLRGETDALAGVPKVRLFVMGIDEWRDETDWPLPDTAYTPFYLGGSGAANTSTGGGTLSTSISGTESADTYLYDPADPVPSLGGTLLFHNGDNGPADQRPIHDRDDVLCYSTEVLTDPVEVTGTVSARLFVSSSAVDTDFTAKLVDVFPDGRAIALCDGIVRMRYRETLVNPTLIEAGEIYEVAIDMLATSNVFLPGHRIMVQVSSSNFPKYDRNSNTGGVIAREQLEEMCTAVNRIHRGPEHPSHIVLPIIKR
Consider B4, for which the “catalytic efficiency on benzoylecgonine compared with the wildtype enzyme (in words)” value is “greatly improved”; the “RCE, ratio” value came out at 61.2; the Km was determined as 89.6 µM; the kcat amounted to 5.34 s⁻¹.

B5: T172R/G173Q/L196C/I301C/V116K: cocaine esterase mutant of SEQ ID No. 1 with the named mutations (protein, UniProt Q9L9D7 1-574, looked up, variant T172R G173Q L196C I301C V116K)
Cocaine esterase: MVDGNYSVASNVMVPMRDGVRLAVDLYRPDADGPVPVLLVRNPYDKFDVFAWSTQSTNWLEFVRDGYAVVIQDTRGLFASEGEFVPHVDDEADAEDTLSWILEQAWCDGNVGMFGKSYLGVTQWQAAVSGVGGLKAIAPSMASADLYRAPWYGPGGALSVEALLGWSALIGRQLITSRSDARPEDAADFVQLAAICNDVAGAASVTPLAEQPLLGRLIPWVIDQVVDHPDNDESWQSISLFERLGGLATPALITAGWYDGFVGESLRTFVAVKDNADARLVVGPWSHSNLTGRNADRKFGCAATYPIQEATTMHKAFFDRHLRGETDALAGVPKVRLFVMGIDEWRDETDWPLPDTAYTPFYLGGSGAANTSTGGGTLSTSISGTESADTYLYDPADPVPSLGGTLLFHNGDNGPADQRPIHDRDDVLCYSTEVLTDPVEVTGTVSARLFVSSSAVDTDFTAKLVDVFPDGRAIALCDGIVRMRYRETLVNPTLIEAGEIYEVAIDMLATSNVFLPGHRIMVQVSSSNFPKYDRNSNTGGVIAREQLEEMCTAVNRIHRGPEHPSHIVLPIIKR
Turning to B5, the “RCE, ratio” value came to 210.3; the Km stood at 46.3 µM; the kcat came to 9.477 s⁻¹.

B6: T172R/G173Q/L196C/I301C/V116K/A51F: cocaine esterase mutant of SEQ ID No. 1 with the named mutations (protein, UniProt Q9L9D7 1-574, looked up, variant T172R G173Q L196C I301C V116K A51F)
Cocaine esterase: MVDGNYSVASNVMVPMRDGVRLAVDLYRPDADGPVPVLLVRNPYDKFDVFFWSTQSTNWLEFVRDGYAVVIQDTRGLFASEGEFVPHVDDEADAEDTLSWILEQAWCDGNVGMFGKSYLGVTQWQAAVSGVGGLKAIAPSMASADLYRAPWYGPGGALSVEALLGWSALIGRQLITSRSDARPEDAADFVQLAAICNDVAGAASVTPLAEQPLLGRLIPWVIDQVVDHPDNDESWQSISLFERLGGLATPALITAGWYDGFVGESLRTFVAVKDNADARLVVGPWSHSNLTGRNADRKFGCAATYPIQEATTMHKAFFDRHLRGETDALAGVPKVRLFVMGIDEWRDETDWPLPDTAYTPFYLGGSGAANTSTGGGTLSTSISGTESADTYLYDPADPVPSLGGTLLFHNGDNGPADQRPIHDRDDVLCYSTEVLTDPVEVTGTVSARLFVSSSAVDTDFTAKLVDVFPDGRAIALCDGIVRMRYRETLVNPTLIEAGEIYEVAIDMLATSNVFLPGHRIMVQVSSSNFPKYDRNSNTGGVIAREQLEEMCTAVNRIHRGPEHPSHIVLPIIKR
Turning to B6, the “RCE, ratio” value is reported as 211.8; the Km is 59.3 µM; the kcat stood at 12.23 s⁻¹.

B7: T172R/G173Q/L196C/I301C/V116K/A51W: cocaine esterase mutant of SEQ ID No. 1 with the named mutations (protein, UniProt Q9L9D7 1-574, looked up, variant T172R G173Q L196C I301C V116K A51W)
Cocaine esterase: MVDGNYSVASNVMVPMRDGVRLAVDLYRPDADGPVPVLLVRNPYDKFDVFWWSTQSTNWLEFVRDGYAVVIQDTRGLFASEGEFVPHVDDEADAEDTLSWILEQAWCDGNVGMFGKSYLGVTQWQAAVSGVGGLKAIAPSMASADLYRAPWYGPGGALSVEALLGWSALIGRQLITSRSDARPEDAADFVQLAAICNDVAGAASVTPLAEQPLLGRLIPWVIDQVVDHPDNDESWQSISLFERLGGLATPALITAGWYDGFVGESLRTFVAVKDNADARLVVGPWSHSNLTGRNADRKFGCAATYPIQEATTMHKAFFDRHLRGETDALAGVPKVRLFVMGIDEWRDETDWPLPDTAYTPFYLGGSGAANTSTGGGTLSTSISGTESADTYLYDPADPVPSLGGTLLFHNGDNGPADQRPIHDRDDVLCYSTEVLTDPVEVTGTVSARLFVSSSAVDTDFTAKLVDVFPDGRAIALCDGIVRMRYRETLVNPTLIEAGEIYEVAIDMLATSNVFLPGHRIMVQVSSSNFPKYDRNSNTGGVIAREQLEEMCTAVNRIHRGPEHPSHIVLPIIKR
In the case of B7, the “RCE, ratio” value came to 132.5; the Km is 95.6 µM; the kcat was found to be 12.34 s⁻¹.
